Experimental findings from US20130064834A1 (published 2013) are described below.

Assay [1] deals with T1, Chimeric protein #3 (mPro-mCat-hC-term-mmh) (mouse; human).
T1 chain: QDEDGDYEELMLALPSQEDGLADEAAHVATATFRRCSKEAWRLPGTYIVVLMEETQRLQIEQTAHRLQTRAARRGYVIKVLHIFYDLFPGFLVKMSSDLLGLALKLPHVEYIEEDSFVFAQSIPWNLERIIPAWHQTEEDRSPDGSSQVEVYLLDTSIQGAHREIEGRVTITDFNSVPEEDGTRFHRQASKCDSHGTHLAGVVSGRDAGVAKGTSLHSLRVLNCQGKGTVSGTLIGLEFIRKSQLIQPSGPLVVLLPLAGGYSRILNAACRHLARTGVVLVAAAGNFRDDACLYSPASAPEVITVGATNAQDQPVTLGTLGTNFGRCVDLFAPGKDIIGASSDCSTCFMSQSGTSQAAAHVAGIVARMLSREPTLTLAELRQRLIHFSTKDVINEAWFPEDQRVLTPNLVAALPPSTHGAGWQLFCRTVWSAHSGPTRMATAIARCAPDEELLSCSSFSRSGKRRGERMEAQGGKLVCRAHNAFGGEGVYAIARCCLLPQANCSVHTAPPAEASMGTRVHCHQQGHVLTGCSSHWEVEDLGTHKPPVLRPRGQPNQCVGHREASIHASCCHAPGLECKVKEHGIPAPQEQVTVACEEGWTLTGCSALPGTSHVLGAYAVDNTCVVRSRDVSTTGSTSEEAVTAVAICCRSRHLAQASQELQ
Briefly: SPR, mAb captured on anti-hFc, 100 nM antigen.
Protocol: Changes in RU due to the binding of each protein to the mAb surface was determined.

Assay [2] concerns the target T2, tagged rhesus monkey (Macaca mulata) PCSK9 (rhesus monkey (Macaca mulata), UniProt A8T666 31-692).
T2 construct: also called mmPCSK9-mmh; mmPCSK9
Briefly: SPR, 25C.

Assay [3] concerns the target T1, Chimeric protein #3 …. Briefly: ELISA, mAb coated, 1.7 nM antigen. (An ELISA detects its analyte on a solid surface through an enzyme-linked reagent.)
Assay [4] concerns the target T3, Chimeric protein #1 (mPro-hCat-mC-term-mmh) (mouse; human, UniProt Q80W65 35-694).
T3 chain: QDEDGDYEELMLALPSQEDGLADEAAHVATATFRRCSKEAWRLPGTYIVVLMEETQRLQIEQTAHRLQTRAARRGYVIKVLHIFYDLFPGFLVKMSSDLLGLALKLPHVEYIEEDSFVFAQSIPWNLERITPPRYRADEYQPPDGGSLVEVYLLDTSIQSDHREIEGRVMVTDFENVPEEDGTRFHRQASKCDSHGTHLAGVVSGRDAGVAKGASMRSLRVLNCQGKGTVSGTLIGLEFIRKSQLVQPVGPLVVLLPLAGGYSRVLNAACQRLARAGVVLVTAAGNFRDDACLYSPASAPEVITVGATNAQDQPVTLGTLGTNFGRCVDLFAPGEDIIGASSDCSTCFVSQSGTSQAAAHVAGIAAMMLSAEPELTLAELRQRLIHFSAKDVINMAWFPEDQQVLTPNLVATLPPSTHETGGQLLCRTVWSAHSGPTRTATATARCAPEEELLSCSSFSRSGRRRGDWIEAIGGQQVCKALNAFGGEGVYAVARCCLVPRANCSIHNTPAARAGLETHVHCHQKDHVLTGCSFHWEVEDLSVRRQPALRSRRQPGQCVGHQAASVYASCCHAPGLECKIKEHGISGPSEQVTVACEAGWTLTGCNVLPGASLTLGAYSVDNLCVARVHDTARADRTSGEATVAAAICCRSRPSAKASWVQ
Briefly: ELISA, mAb coated, 1.2 nM antigen.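 Also: antigen allowed to bind for 1 h at room temperature, then captured protein revealed with an HRP-linked polyclonal anti-myc antibody and read as optical density.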
Description: (§1) After 1 hr binding at RT, the plate was washed and bound test protein detected using HRP-conjugated anti-myc polyclonal antibody (++=OD>1.0; +=OD 0.4-1.0; −=OD<0.4).

The target in assay [5] is T4, mouse PCSK9, myc-myc-his tagged (mouse, UniProt Q80W65 35-694).
T4 construct: also called mPCSK9-mmh; mPCSK9
Briefly: ELISA, mAb coated, 1.2 nM antigen.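 Also: antigen allowed to bind for 1 h at room temperature, then captured protein revealed with an HRP-linked polyclonal anti-myc antibody and read as optical density.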
Description: as §1

Assay [6] addresses Chimeric protein #2 (hPro-mCat-mC-term-mmh) (human; mouse, UniProt Q80W65 19-694). In words: ELISA, mAb coated, 1.2 nM antigen.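 Also: antigen allowed to bind for 1 h at room temperature, then captured protein revealed with an HRP-linked polyclonal anti-myc antibody and read as optical density.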
Description: as §1
The target in assay [7] is T5, hPCSK9(D374Y)-mmh (human, UniProt Q8NBP7 31-692).
T5 construct: also called hPCSK(D374Y)-mmh
Briefly: ELISA, mAb coated, 1.2 nM antigen.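 Also: antigen allowed to bind for 1 h at room temperature, then captured protein revealed with an HRP-linked polyclonal anti-myc antibody and read as optical density.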
Description: as §1

Assay [8] deals with T1, Chimeric protein #3 …. Briefly: ELISA, mAb coated, 1.2 nM antigen.
Description: as §1
The target in assay [9] is T6, Human PCSK9-myc-myc-his (human, UniProt Q8NBP7 31-692).
T6 construct: also called hPCSK9-mmh; hPCSK9
Briefly: ELISA, mAb coated, 1.2 nM antigen.
Description: as §1

For assay [10], the target named is T7, cynomolgus monkey (Macaca fascicularis) PCSK9, myc-myc-his tagged (cynomolgus monkey (Macaca fascicularis), UniProt A8T662 31-692 (Macaca nemestrina entry), limits assumed).
T7 construct: also called mfPCSK9-mmh; mfPCSK9
Briefly: SPR, mAb captured on anti-hFc, 37C.

The target in assay [11] is T2, tagged rhesus monkey (Macaca mulata) …. Briefly: SPR, mAb captured on anti-hFc, 37C. (In general: In SPR one partner is held on a chip, and binding of the other changes the refractive index at the surface.)
The target of assay [12] is T5, hPCSK9(D374Y)-mmh. Briefly: SPR, mAb captured on anti-hFc, 37C.
The target of assay [13] is T6, Human PCSK9-myc-myc-his. Briefly: SPR, mAb captured on anti-hFc, 37C.

T2 sequence (A8T666 31-692 limits assumed): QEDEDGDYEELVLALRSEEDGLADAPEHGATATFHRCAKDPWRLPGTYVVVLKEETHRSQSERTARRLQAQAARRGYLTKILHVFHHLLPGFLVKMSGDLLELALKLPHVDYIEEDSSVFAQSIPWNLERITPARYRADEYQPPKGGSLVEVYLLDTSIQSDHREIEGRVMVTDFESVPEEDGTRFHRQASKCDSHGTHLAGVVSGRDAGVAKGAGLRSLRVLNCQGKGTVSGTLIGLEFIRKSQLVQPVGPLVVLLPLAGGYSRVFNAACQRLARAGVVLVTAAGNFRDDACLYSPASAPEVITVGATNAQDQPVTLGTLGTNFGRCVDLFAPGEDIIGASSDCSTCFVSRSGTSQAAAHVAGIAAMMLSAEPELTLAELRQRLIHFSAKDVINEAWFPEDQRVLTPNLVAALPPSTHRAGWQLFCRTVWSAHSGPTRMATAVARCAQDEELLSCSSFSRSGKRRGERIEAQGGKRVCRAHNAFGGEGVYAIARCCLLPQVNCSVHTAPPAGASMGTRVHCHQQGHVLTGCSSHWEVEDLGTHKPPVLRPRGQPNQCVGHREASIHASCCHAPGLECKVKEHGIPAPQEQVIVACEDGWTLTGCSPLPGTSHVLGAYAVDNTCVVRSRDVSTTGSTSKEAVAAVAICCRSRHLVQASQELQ
T7 sequence (A8T662 31-692 limits assumed): as the sequence (A8T666 31-692 limits assumed) above, with P607A, K639E counted along it

B1: H1H316P (antibody, V domains shown)
VH: EVQLVESGGGLVQPGGSLRLSCAASGFTFNNYAMNWVRQAPGKGLDWVSTISGSGGTTNYADSVKGRFIISRDSSKHTLYLQMNSLRAEDTAVYYCAKDSNWGNFDLWGRGTLVTVSS
VL: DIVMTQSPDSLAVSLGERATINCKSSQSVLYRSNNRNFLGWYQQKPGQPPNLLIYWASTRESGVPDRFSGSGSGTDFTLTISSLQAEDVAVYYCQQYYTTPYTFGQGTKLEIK
notes: Fully human mAb made in CHO cells; also called mAb316P
As to B1, in assay [1], the “change in RU” value was 467 RU. This molecule also returned a T1/2 in assay [2] of 51 min. Moreover, in assay [2], the koff – broadly, a measure of how fast the partners let go of each other – stood at 0.000229 s⁻¹. The OD in assay [3] is greater than 1.5 od; in assay [4], greater than 1 od; in [5], greater than 1 od; in [6], greater than 1 od; in the assay with hPCSK9(D374Y)-mmh [7], greater than 1 od; in assay [8] it was greater than 1 od. The molecule further had an OD with Human PCSK9-myc-myc-his [9] greater than 1 od.

B2: H1M300N (antibody, V domains shown)
VH: EMQLVESGGGLVQPGGSLRLSCAASGFTFSSHWMKWVRQAPGKGLEWVANINQDGSEKYYVDSVKGRFTISRDNAKNSLFLQMNSLRAEDTAVYYCARDIVLMVYDMDYYYYGMDVWGQGTTVTVSS
VL: not shown
notes: Fully human version made in CHO cells
B2: the dissociation constant (Kd) (in general, the equilibrium constant for the complex coming apart) in assay [10] is 3.8 nM; in assay [11], 1.6 nM; in the assay with hPCSK9(D374Y)-mmh [12], 2.2 nM; with Human PCSK9-myc-myc-his [13], 2.4 nM. Further, the T1/2 was found to be 11 min in [10], 26 min in assay [11], 14 min with hPCSK9(D374Y)-mmh [12] and 22 min with Human PCSK9-myc-myc-his [13].
